Laboratory results as given in patent US6355785.

Experiments:
[1] = biological target: HIV-1 gp120 (Human immunodeficiency virus 1) (UniProt P04578); experiment: competition; conditions: ID50 for gp120, gp120-CD4 interaction
[2] = biological target: T1, SIV integrase (Simian immunodeficiency virus) (UniProt P05897); experiment: inhibition; conditions: PS at first and last internucleoside linkages (pPT), 3'-OH; 3'-processing
T1 sequence: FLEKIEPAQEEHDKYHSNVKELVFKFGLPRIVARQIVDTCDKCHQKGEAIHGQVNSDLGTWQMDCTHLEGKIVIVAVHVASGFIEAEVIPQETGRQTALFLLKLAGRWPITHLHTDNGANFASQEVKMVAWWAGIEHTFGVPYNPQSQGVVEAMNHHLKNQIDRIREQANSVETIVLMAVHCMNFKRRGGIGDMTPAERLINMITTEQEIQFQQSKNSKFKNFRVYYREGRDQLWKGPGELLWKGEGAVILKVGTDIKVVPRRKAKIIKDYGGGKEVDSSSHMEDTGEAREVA

[3] = biological target: HIV-1 integrase wild-type (IN1-288) (Human immunodeficiency virus 1) (UniProt P12497); experiment: inhibition; conditions: I, 3'-processing

**Q.** With GATCCATGTCAGTGACAC [1231 random GATC] as the sequence, how does the IC50 ([1]; phosphodiester, 3'-amine) read?
**A.** > 100000 nM

**Q.** GATCCATGTCAGTGACAC [1232 random GATC] was tested. Which IC50 ([1]; PS all linkages, 3'-amine) did it give?
**A.** > 10000 nM

**Q.** GGGTGGGTGGGTGGGTGG [1173] was tested. Which IC50 ([1]; phosphodiester, 3'-amine) did it give?
**A.** > 100000 nM

**Q.** Which IC50 ([1]; PS all linkages, 3'-amine) does the source give for GGGTGGGTGGGTGGGTGG [1174] here?
**A.** 90 nM

**Q.** With GTGGTGGGTGGGTGGGT [T30177 (AR177)] as the sequence, how does the IC50 [2] read?
**A.** 420 nM

**Q.** Which IC50 ([1]; phosphodiester, 3'-amine) does the source give for “GTGGTGGGTGGGTGGGTGGTGGGTGGTGGTTGTGGGTGGGTGGTG [I100-07]” here?
**A.** 800 nM

**Q.** For “GTGGTGGGTGGGTGGGTGGTGGGTGGTGGTTGTGGGTGGGTGGTG [I100-21]”, which IC50 ([1]; PS all linkages, 3'-amine) is on record?
**A.** 70 nM

**Q.** For GTTGGGGGTTGTTGGTGGGGTGGTGG [I100-00], which IC50 ([1]; phosphodiester, 3'-propanolamine) is on record?
**A.** 3500 nM

**Q.** How did the IC50 ([1]; PS all linkages, 3'-amine) turn out when GTTGGGGGTTGTTGGTGGGGTGGTGG [I100-12] was run?
**A.** 80 nM

**Q.** With “TCTTCCTCTCTCTACCCACGCTCIC [T30531 antisense GEM91 variant PT]” as the sequence, how does the IC50 ([3]; PS all linkages, strand transfer 0.036) read?
**A.** 30 nM

**Q.** Which IC50 ([3]; all phosphodiester, strand transfer >0.5) does the source give for “TCTTCCTCTCTCTACCCACGCTCIC [T30658 antisense GEM91 variant PD]” here?
**A.** > 500 nM

**Q.** How did the IC50 ([3]; PS at first and last linkages (pPT), strand transfer >0.5) turn out when “TCTTCCTCTCTCTACCCACGCTCIC [T30662 antisense GEM91 variant pPT]” was run?
**A.** > 500 nM
